The values below come from patent US20240343802A1 (Zymeworks, published 2024).

The target of assay [1] is T1, CD19 on CD19-expressing Raji B cells (human, UniProt P15391 20-556).
T1 construct: whole, on cells
T1 sequence (looked up): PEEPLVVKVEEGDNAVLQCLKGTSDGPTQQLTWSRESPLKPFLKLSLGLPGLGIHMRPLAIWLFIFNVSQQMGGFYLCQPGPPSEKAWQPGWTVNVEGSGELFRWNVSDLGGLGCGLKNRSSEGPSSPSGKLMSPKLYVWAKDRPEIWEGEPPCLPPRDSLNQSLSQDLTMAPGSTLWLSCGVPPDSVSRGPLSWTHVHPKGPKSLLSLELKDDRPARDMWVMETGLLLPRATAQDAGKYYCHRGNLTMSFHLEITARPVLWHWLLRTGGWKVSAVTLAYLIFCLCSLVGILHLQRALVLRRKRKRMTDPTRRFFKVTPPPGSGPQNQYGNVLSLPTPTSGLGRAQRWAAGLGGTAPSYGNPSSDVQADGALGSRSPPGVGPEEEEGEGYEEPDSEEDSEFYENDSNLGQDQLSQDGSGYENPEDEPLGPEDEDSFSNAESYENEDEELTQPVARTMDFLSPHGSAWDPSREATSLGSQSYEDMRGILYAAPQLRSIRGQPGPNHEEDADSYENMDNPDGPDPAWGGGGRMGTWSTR
As to the kind of experiment: FACS, Raji cells.

The next assay addresses T2, CD32aWT (UniProt P12318 36-218).
T2 construct: also called CS32a
T2 sequence (looked up): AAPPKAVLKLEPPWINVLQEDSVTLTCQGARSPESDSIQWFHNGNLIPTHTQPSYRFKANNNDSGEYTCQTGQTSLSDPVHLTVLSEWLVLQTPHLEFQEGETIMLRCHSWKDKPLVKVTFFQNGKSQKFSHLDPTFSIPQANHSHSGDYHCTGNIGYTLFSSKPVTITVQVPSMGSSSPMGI
As to the kind of experiment: SPR, antibody captured, FcγR injected. A general note: SPR reads the build-up and loss of mass on a sensor chip optically.

In the next assay the target is T3, CD32bWT (UniProt P31994 43-217).
T3 sequence (looked up): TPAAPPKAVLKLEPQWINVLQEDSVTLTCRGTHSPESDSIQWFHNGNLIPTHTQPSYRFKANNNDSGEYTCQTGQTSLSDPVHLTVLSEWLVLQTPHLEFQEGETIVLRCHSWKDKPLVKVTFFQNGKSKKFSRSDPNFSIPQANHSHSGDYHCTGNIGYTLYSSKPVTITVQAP
As to the kind of experiment: SPR, antibody captured, FcγR injected.

Assay [2] has as its target T4, CD3 on CD3-expressing T cells (Jurkat, HPB-ALL) (UniProt P07766 23-207).
T4 construct: whole, on cells; A multi-chain complex on cells; also called CD3 complex
The assay is described as follows: whole cell binding by FACS on CD3-expressing Jurkat T cells; concentration not shown. A general note: Flow cytometry measures light scatter and fluorescence of single cells or particles in a stream.

Another assay addresses CD16aWT (UniProt P08637 17-208). The assay is described as follows: SPR, antibody captured, FcγR injected.

B1: v1379, anti-CD19 BiTE (VL-VH) scFv / anti-CD3 BiTE (VH-VL) scFv heterodimeric Fc (bispecific antibody)
chain 1: DIQLTQSPASLAVSLGQRATISCKASQSVDYDGDSYLNWYQQIPGQPPKLLIYDASNLVSGIPPRFSGSGSGTDFTLNIHPVEKVDAATYHCQQSTEDPWTFGGGTKLEIKGGGGSGGGGSGGGGSQVQLQQSGAELVRPGSSVKISCKASGYAFSSYWMNWVKQRPGQGLEWIGQIWPGDGDTNYNGKFKGKATLTADESSSTAYMQLSSLASEDSAVYFCARRETTTVGRYYYAMDYWGQGTTVTVSSAAEPKSSDKTHTCPPCPAPELLGGPSVFLFPPKPKDTLMISRTPEVTCVVVDVSHEDPEVKFNWYVDGVEVHNAKTKPREEQYNSTYRVVSVLTVLHQDWLNGKEYKCKVSNKALPAPIEKTISKAKGQPREPQVYVYPPSRDELTKNQVSLTCLVKGFYPSDIAVEWESNGQPENNYKTTPPVLDSDGSFALVSKLTVDKSRWQQGNVFSCSVMHEALHNHYTQKSLSLSPGK
chain 2: not shown
notes: WT effector Fc; copies: 1 + 1
A word on the Kd: it is the constant that tells how readily two partners part at equilibrium. Lower therefore signals higher affinity. As to B1, the results for the Kd (in assay [1]; in the assay with CD32aWT; in the assay with CD32bWT) were 2.12 nM, 600 nM and 470 nM, respectively.

B2: one-armed anti-CD19 antibody (v869: anti-CD19 BiTE scFv (VL-VH) on chain A, Fc only on chain B) (antibody)
chain 1: DIQLTQSPASLAVSLGQRATISCKASQSVDYDGDSYLNWYQQIPGQPPKLLIYDASNLVSGIPPRFSGSGSGTDFTLNIHPVEKVDAATYHCQQSTEDPWTFGGGTKLEIKGGGGSGGGGSGGGGSQVQLQQSGAELVRPGSSVKISCKASGYAFSSYWMNWVKQRPGQGLEWIGQIWPGDGDTNYNGKFKGKATLTADESSSTAYMQLSSLASEDSAVYFCARRETTTVGRYYYAMDYWGQGTTVTVSSAAEPKSSDKTHTCPPCPAPELLGGPSVFLFPPKPKDTLMISRTPEVTCVVVDVSHEDPEVKFNWYVDGVEVHNAKTKPREEQYNSTYRVVSVLTVLHQDWLNGKEYKCKVSNKALPAPIEKTISKAKGQPREPQVYTYPPSRDELTKNQVSLTCLVKGFYPSDIAVEWESNGQPENNYKTTPPVLDSDGSFALVSKLTVDKSRWQQGNVFSCSVMHEALHNHYTQKSLSLSPGK
chain 2: not shown
notes: also called anti-CD19 OAA; anti-CD19 one arm constructs
As to B2, the binding result in assay [2] is listed as “no binding”.

B3: v1381, anti-CD19 BiTE (VL-VH) scFv / anti-CD3 BiTE (VH-VL) scFv heterodimeric Fc with N297A (bispecific antibody)
chain 1: DIQLTQSPASLAVSLGQRATISCKASQSVDYDGDSYLNWYQQIPGQPPKLLIYDASNLVSGIPPRFSGSGSGTDFTLNIHPVEKVDAATYHCQQSTEDPWTFGGGTKLEIKGGGGSGGGGSGGGGSQVQLQQSGAELVRPGSSVKISCKASGYAFSSYWMNWVKQRPGQGLEWIGQIWPGDGDTNYNGKFKGKATLTADESSSTAYMQLSSLASEDSAVYFCARRETTTVGRYYYAMDYWGQGTTVTVSSAAEPKSSDKTHTCPPCPAPELLGGPSVFLFPPKPKDTLMISRTPEVTCVVVDVSHEDPEVKFNWYVDGVEVHNAKTKPREEQYASTYRVVSVLTVLHQDWLNGKEYKCKVSNKALPAPIEKTISKAKGQPREPQVYVYPPSRDELTKNQVSLTCLVKGFYPSDIAVEWESNGQPENNYKTTPPVLDSDGSFALVSKLTVDKSRWQQGNVFSCSVMHEALHNHYTQKSLSLSPGK
chain 2: not shown
notes: Fc knock-out N297A on both chains; copies: 1 + 1
Consider B3, for which, in assay [1], the Bmax was found to be 13900. The Kd in assay [1] was determined as 2.36 nM. Besides, the binding result in the assay with CD16aWT, with CD32aWT and in the assay with CD32bWT was “no binding (tested: FcγR injected up to 10,000 nM)” each time.
